Assay results: the supplement of paper PMC10266784

B1: library; numbered along this chain (parent)
chain: MAAAAAAAAEQQSSNGPVKKSMREKAVERRSVNKEHNSNFKAGYIPIDEDRLHKTGLRGRKGNLAICVIILLFILAVINLIITLVIWAVIRIGPNGCDSMEFHESGLLRFKQVSDMGVIHPLYKSTVGGRRNENLVITGNNQPIVFQQGTTKLSVENNKTSITSDIGMQFFDPRTQNILFSTDYETHEFHLPSGVKSLNVQKASTERITSNATSDLNIKVDGRAIVRGNEGVFIMGKTIEFHMGGNMELKAENSIILNGSVMVSTTRLPSSSSGDQLGSGDWVRYKLCMCADGTLFKVQVTSQNMGCQISDNPCGNTH

Variants of: B1
Assay: SGCB cell-surface expression functional score (HA stain, bin4 vs bin1, normalised to synonymous) (log10 ratio); higher = more cell-surface SGCB (functional)
Protocol: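 Deep mutational scan of full-length human SGCB (YFP-SGCB-HA, NNN codon sublibraries A-F) delivered by lentivirus at low MOI into ADG-HEK293 cells stably expressing SGCA, SGCD and SGCG. YFP-positive cells were stained for surface HA on unpermeabilized cells and FACS-sorted into bins. The functional score is log10(frequency in high bin 4 / frequency in low bin 1), normalised per chunk so that synonymous variants have mean 0 and SD 0.5. Scores are the median over codons and over duplicate biological replicates; scores below -0.5 are called non-functional. Scale: negative means deleterious.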

SGCB cell-surface expression functional score (log10) of substitutions, site by site:
K41: W 0.02 | N 0.25 | G -0.27 | E 0.61 | V 0.04 | Y -0.07 | C -0.2 | P 0.21 | M 0.55 | L 0.1 | F -0.47 | D -0.08 | I -0.28 | S 0.28 | H 0.22 | A 0.77 | T 0.26 | R -0.25 | Q 0.4
I47: T 0.58 | C 0.31 | F -0.49 | Q 0.68 | Y 0.65 | G 0.36 | W -0.62 | D 0.59 | E 0.72 | A 0.17 | V 0.12 | R -0.19 | P 0.47 | S 0.29 | N 0.73 | M 0.47 | K 0.52 | L -0.14 | H 0.63
I45: W 0.91 | E 0.23 | H 0.03 | A 0.33 | M 0.43 | F -0.02 | Y 0.68 | T 0.15 | R -0.17 | K -0.41 | Q -0.67 | D 0.9 | S -0.08 | N 0.15 | V 0.48 | C -0.09 | L -0.03 | P 0.52 | G -0.04
R51: V 0.39 | T 0.01 | S 0.04 | I 0.36 | K 0.63 | D -0.06 | Y 0.17 | A 0.1 | W 0.83 | Q 0.54 | E 0.04 | C -0.24 | P 0.04 | L 0.47 | F 0.49 | N 0.2 | G -0.17 | M -0.39 | H 0
D48: P 0.18 | R -0.06 | I 0.19 | F 0.37 | E -0.17 | V 0.07 | S 0.3 | N 0.13 | C 0.13 | M 0.77 | W 0.22 | A 0.6 | Q -0.36 | L 0.18 | Y 0.4 | H 0.33 | T -0.04 | K -0.09 | G -0.07
N39: A -0.05 | V 0.44 | G 0.13 | Q 0.07 | S 0.02 | C 0.2 | Y -0.08 | P -0.17 | L -0.02 | F -0.12 | D 0.41 | R -0.29 | I -0.18 | K 0.08 | M -0.61 | E 0.54 | H -0.1 | W -0.81 | T -0.1
G43: R 0.51 | H 0.33 | T 0.05 | L -0.21 | P 0.76 | D 0.22 | W 0.34 | Y -0.59 | S 0.34 | M -0.74 | E 0.18 | Q 0.32 | C -0.02 | I -0.07 | N 0.18 | V 0.07 | K 0.2 | F -0.52 | A 0.25
E49: M 0.12 | S 0.15 | K 0.42 | V 0.12 | G 0.17 | F 0.11 | I 0.51 | D 0.02 | N 0.48 | P 0.54 | A 0.29 | C 0.3 | Y 0.09 | R 0.35 | W 0.56 | T 0.27 | Q -0.19 | H -0.23 | L -0.04
P46: F 0.22 | K -0.07 | S 0.15 | D -0.14 | H 0.31 | E 0.1 | M 0 | N 0.18 | Q 0.28 | Y 0.03 | C 0.44 | R -0.18 | A -0.03 | T 0.21 | I 0.27 | W -0.33 | G 0.65 | L -0.2 | V -0.23
H53: F -0.19 | E -0.28 | Q 0.39 | D -0.16 | R 0.29 | V 0.1 | W -0.6 | N 0.08 | K -0.51 | T 0.14 | P 0.19 | S -0.22 | L -0.05 | M 0.08 | C -0.27 | G 0.41 | Y 0.27 | I 0.12 | A 0.38
K54: M -0.19 | F -0.13 | N 0.23 | D -0.71 | I 0.01 | A 0.23 | G 0.21 | H -0.42 | R 0.2 | P -0.04 | C 0.29 | Q -0.58 | E 0.02 | L 0.21
D50: A 0.14 | E 0.3 | F 0.27 | M 0.2 | H 0.24 | S 0.26 | T 0.44 | G 0.3 | P -0.16 | Y 0 | K 0.54 | C 0 | Q 0.04 | N 0.29 | V -0.03 | L 0.12 | I 0.07 | R 0.28 | W -0.47
S38: H 0.06 | T -0.04 | L -0.26 | F -0.14 | K 0.36 | M -0.54 | Q -0.18 | E 0.31 | A -0.36 | D 0.3 | N 0.37 | Y -0.07 | V -0.31 | C -0.16 | R -0.01 | W -0.17 | I -0.09 | P -0.2 | G 0.07
F40: S 0.16 | P -0.13 | V 0.27 | H -0.44 | Q 0.03 | R -0.05 | M -0.28 | G -0.49 | I 0.24 | K 0.55 | N -0.16 | T 0.19 | Y 0.49 | C 0.25 | W -0.21 | E 0.01 | A 0.18 | D 0.12 | L -0.13
L52: Q 0.35 | A 0.22 | H 0.01 | W -0.3 | T 0.42 | M 0.34 | E 0.55 | I -0.3 | N 0.27 | G 0.29 | D 0.39 | C 0.09 | Y 0.25 | R 0.05 | P 0.32 | V 0.17 | S -0.1 | K -0.26 | F 0.04
N37: W -0.53 | E 0.3 | R -0.21 | P -0.1 | M -0.37 | T -0.11 | K -0.39 | I 0.02 | F -0.14 | Q -0.21 | H 0.41 | Y -0.46 | S -0.21 | G -0.15 | L 0.05 | V -0.13
Y44: V 0.64 | M 0.39 | Q 0.8 | L 0.55 | D 0.53 | R 0.08 | E 0.75 | A 0.04 | I 0.42 | N -0.24 | F 0.02 | H 0.01 | C 0.8 | W 0.07 | P 0.61 | G 0.59 | K 0.04 | S 0.14 | T 0.39
A42: L -0.02 | Y -0.17 | C 0.21 | E 0.71 | R -0.08 | K 0.18 | M 0.33 | I -0.45 | P 0.02 | S 0.1 | F -0.42 | W 0.29 | N -0.67 | Q -0.07 | G 0.22 | D -0.28 | T 0.1 | V -0.08 | H -0.08
